In this test the target is rFel d 1.mFc. As to the kind of experiment: SPR; 25°C; dimeric.

In turn, REGN1908 had a Kd of 0.0316 nM and a koff of 7.25e-05 s⁻¹.

For orientation: Kd means the equilibrium constant for the complex coming apart. For orientation: koff means the rate constant with which the complex falls apart. Read a high koff as fast dissociation.
